Among the data in US20200024370A1 are cleaving percentage (C-terminal cleavage, SDS-PAGE), in solution, room temperature, pH 8.5, 1 hour values, retold here.

The assay deals with NpuN (cysteine-free, C.F.), N-terminal Npu DnaE intein segment with His tag and three C-terminal cysteines, coupled to SulfoLink resin (Nostoc punctiforme). The experiment in a line: cell-based or functional assay.

Substance “NpuC^HN-SK^C, C-terminal intein segment with serine to histidine mutation fused to streptokinase with cysteine as +1 residue (from UniProt P00779 27-440)” came in with a cleaving percentage (C-terminal cleavage, SDS-PAGE), in solution, room temperature, pH 8.5, 1 hour of more than 50%.
